Values quoted from earlier work, collected in article PMC5487894.
pKd: −log10 of the molar value. Like-named read-outs stand apart in the source and are kept apart here. Values belong to the substance of their own block, whether it stands above or below them.

What was measured:
Rab5 (Homo sapiens) = Rab5 (Homo sapiens) (UniProt P20339)
[1] = molecular target: CDC12 20-40 (Schizosaccharomyces pombe) (UniProt Q10059)
Rac (Homo sapiens) [2] = molecular target: Rac (Homo sapiens) (UniProt P63000)
Rac (Homo sapiens) [3] = molecular target: Rac (Homo sapiens) (UniProt P63000); remark: listed apart in the source

UniProt P20339, sequence (P20339 whole entry): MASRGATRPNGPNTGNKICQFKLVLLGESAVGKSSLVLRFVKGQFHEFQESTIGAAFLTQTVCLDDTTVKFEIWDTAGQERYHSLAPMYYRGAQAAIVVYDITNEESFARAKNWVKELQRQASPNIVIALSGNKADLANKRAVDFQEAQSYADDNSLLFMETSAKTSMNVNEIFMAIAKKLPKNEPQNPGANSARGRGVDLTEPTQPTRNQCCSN
UniProt Q10059, sequence (Q10059 20-40): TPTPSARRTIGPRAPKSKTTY

pKd (Rab5 (Homo sapiens)): 6.05
Substance: APPL1 BAR-PH (from UniProt Q9UKG1)

pKd [1]: 8.70
Substance: CDC15 F-BAR (from UniProt Q09822)

pKd (Rac (Homo sapiens) [2]): 4.70
pKd (Rac (Homo sapiens) [3]): 5.52
Substance: IRSp53 RCB domain (from UniProt Q9UQB8)
